According to paper PMC5095173, “Disulfide-activated protein kinase G Iα regulates cardiac diastolic relaxation and fine-tunes the Frank–Starling response” (Nature Communications, 2016):

How the values were obtained:
[1] = test system: PKGIα (analogue-sensitive M438G), disulfide-activated; experiment: Chemical genetic phosphoproteomic screen, disulfide-activated PKGIα M438G versus unactivated control; assay type: biochemical, human PKGIα; substrates in rat heart homogenate; conditions: control = PKGIα C42S/M438G
Outline: (§1)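 Analogue-sensitive human PKGIα mutants (M438G, air-oxidized to disulfide dimer; C42S/M438G, cGMP-activated), expressed in 293-F cells, thiophosphorylate substrates in rat left-ventricle lysate (20 mg ml) using N6-alkylated ATPγS. Thiophosphopeptides are recovered by covalent capture and identified with sites by LC–MS/MS, each compared against an unactivated control.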

[2] = test system: PKGIα (analogue-sensitive C42S/M438G), cGMP-activated; experiment: Chemical genetic phosphoproteomic screen, cGMP-activated PKGIα C42S/M438G versus unactivated control; assay type: biochemical, human PKGIα; substrates in rat heart homogenate; conditions: control = PKGIα C42S/M438G
Outline: as §1

Molecule | log2 fold change Disulfide vs Control [1] | log2 fold change cGMP vs Control [2]
Lrpap1 pS245 (protein, UniProt Q99068 34-360, looked up, phosphorylated at S245) Alpha-2-macroglobulin …: HGGKYSREKNEPEMAAKRESGEEFRMEKLNQLWEKAKRLHLSPVRLAELHSDLKIQERDELNWKKLKVEGLDGDGEKEAKLVHNLNVILARYGLDGRKDTQTVHSNALNEDTQDELGDPRLEKLWHKAKTSGKFSSEELDKLWREFLHYKEKIHEYNVLLDTLSRAEEGYENLLSPSDMTHIKSDTLASKHSELKDRLRSINQGLDRLRKVSHQGYGPATEFEEPRVIDLWDLAQSANFTEKELESFREELKHFEAKIEKHNHYQKQLEISHQKLKHVESIGDPEHISRNKEKYVLLEEKTKELGYKVKKHLQDLSSRVSRARHNEL | 0.3181 | 2.6435
Atp5a1 pS184 (protein, UniProt P15999 44-553, looked up, phosphorylated at S184) ATP synthase F(1) complex …: QKTGTAEMSSILEERILGADTSVDLEETGRVLSIGDGIARVHGLRNVQAEEMVEFSSGLKGMSLNLEPDNVGVVVFGNDKLIKEGDIVKRTGAIVDVPVGDELLGRVVDALGNAIDGKGPVGSKIRRRVGLKAPGIIPRISVREPMQTGIKAVDSLVPIGRGQRELIIGDRQTGKTSIAIDTIINQKRFNDGTDEKKKLYCIYVAIGQKRSTVAQLVKRLTDADAMKYTIVVSATASDAAPLQYLAPYSGCSMGEYFRDNGKHALIIYDDLSKQAVAYRQMSLLLRRPPGREAYPGDVFYLHSRLLERAAKMNDSFGGGSLTALPVIETQAGDVSAYIPTNVISITDGQIFLETELFYKGIRPAINVGLSVSRVGSAAQTRAMKQVAGTMKLELAQYREVAAFAQFGSDLDAATQQLLSRGVRLTELLKQGQYSPMAIEEQVAVIYAGVRGYLDKLEPSKITKFESAFLSHVVSQHQSLLGNIRSDGKISEQSDAKLKEIVTNFLAGFEP | 1.986 | 3.438
Atp5a1 pS76 (protein, UniProt P15999 44-553, looked up, phosphorylated at S76) ATP synthase F(1) complex …: QKTGTAEMSSILEERILGADTSVDLEETGRVLSIGDGIARVHGLRNVQAEEMVEFSSGLKGMSLNLEPDNVGVVVFGNDKLIKEGDIVKRTGAIVDVPVGDELLGRVVDALGNAIDGKGPVGSKIRRRVGLKAPGIIPRISVREPMQTGIKAVDSLVPIGRGQRELIIGDRQTGKTSIAIDTIINQKRFNDGTDEKKKLYCIYVAIGQKRSTVAQLVKRLTDADAMKYTIVVSATASDAAPLQYLAPYSGCSMGEYFRDNGKHALIIYDDLSKQAVAYRQMSLLLRRPPGREAYPGDVFYLHSRLLERAAKMNDSFGGGSLTALPVIETQAGDVSAYIPTNVISITDGQIFLETELFYKGIRPAINVGLSVSRVGSAAQTRAMKQVAGTMKLELAQYREVAAFAQFGSDLDAATQQLLSRGVRLTELLKQGQYSPMAIEEQVAVIYAGVRGYLDKLEPSKITKFESAFLSHVVSQHQSLLGNIRSDGKISEQSDAKLKEIVTNFLAGFEP | 1.372 | 2.023
Dync1li1 pT408 (protein, UniProt Q9QXU8 1-523, looked up, phosphorylated at T408) Cytoplasmic dynein 1 light …: MAAVGRVGSFGSSPPGLASTYASGPLANELASGSGGPAAGDDEDGQNLWSRILREVSTRSRSKLPTGKNVLLLGEDGAGKTSLIRRIQGIEEYKKGRGLEYLYLNVHDEDRDDQTRCNVWILDGDLYHKGLLKFSLDALSLRDTLVMLVVDMSKPWTALDSLQKWASVVREHVDKLKIPPEEMKEMEQKLIRDFQEYVEPGEDFPASPQRRATAAQEDRDDSVVLPLGADTLTHNLGLPVLVVCTKCDAISVLEKEHDYRDEHFDFIQSHIRKFCLQYGAALIYTSVKENKNIDLVYKYIVQKLYGFPYKIPAVVVEKDAVFIPAGWDNDKKIGILHENFQTLKIEDNFEDIITKPPVRKFVHEKEIMAEDDQVFLMKLQSLLAKQPPTAAGRPVDASPRVPGGSPRTPNRSVSSNVASVSPIPAGSKKIDPNMKAGATSEGVLANFFNSLLSKKTGSPGGPGVGGSPGGGAAGASTSLPPSAKKSGQKPVLSDVHAELDRITRKPASVSPTTPPSPTEGEAS | 1.949 | 3.758
Dync1li1 pS412 (protein, UniProt Q8R1Q8 1-523, looked up, phosphorylated S412) Cytoplasmic dynein 1 light …: MAAVGRVGSFGSSPPGLASTYASGPLANELASGSGGPAAGDDEDGQNLWSCILSEVSTRSRSKLPTGKNVLLLGEDGAGKTSLIRRIQGIEEYKKGRGLEYLYLNVHDEDRDDQTRCNVWILDGDLYHKGLLKFSLDALSLRDTLVMLVVDMSKPWTALDSLQKWASVVREHVDKLKIPPEEMKEMEQKLIRDFQEYVEPGEDFPASPQRRTTGAQEDRGDSVVLPLGADTLTHNLGLPVLVVCTKCDAISVLEKEHDYRDEHFDFIQSHIRKFCLQYGAALIYTSVKENKNIDLVYKYIVQKLYGFPYKIPAVVVEKDAVFIPAGWDNDKKIGILHENFQTLKVEDNFEDIITKPPVRKFVHEKEIMAEDDQVFLMKLQSLLAKQPPTAAGRPVDASPRVPGGSPRTPNRSVSSNVASVSPIPAGSKKIDPNMKAGATSEGVLANFFNSLLSKKTGSPGGPGVGGSPGGGAAGASPSLPPSAKKSGQKPVLSDVHAELDRITRKPASVSPTTPTSPTEGEAS | 1.658 | 4.149
Akap1 pS103 (protein, UniProt O88884 30-854, looked up, phosphorylated at S103) A-kinase anchor protein 1, …: KDRLSSNGKQVGTLKVGPAIEDRLPTEEACPGVLSVTPSVTQPPGKEEQRSMDRPLSDPPALPRTRQVRRRSESSGNLPSIVDTRLQAGQCSDENSKVVLSLMGDEAKSIPLGRPLFPKDLSFPYEAVEGCKQESALGRTPGRGWLSQCAASGENARETGGAEGTGDAVLGESVLEEGLLPQECVSEVEKSEFPILAPGGGGGEKVRSGPPQVDELLKKEEYIVGKLPSSFVGPVHSELVKDEGALVPQVKGSQDRSLARELDKDKTLPEKDQIEQTAFQIISQVILEATEEIRATTVGKTVAQVHPTPGTQPQGQEESCVPASQETSLGQEIPDPASTRTGATASPSAGAPPPKTYVSCLSSPLSGPTKDQKPKNSAHHISLAPCPPPVTPQRQSLDGASNPRGDDTFVTCTSNNSQSVLSVTSLGLCSDPVSTSRLEDSCTETISSSGDKAVTPPLPDSTEPFSNGVLKEELSDLGTEDGWTMDTEADHSGGSDGNSMDSVDSCCGLTKPDSPQTVQAGSNPKKVDLIIWEIEVPKHLVGRLIGKQGRYVSFLKQTSGAKIYISTLPYTQNIQICHIEGSQHHVDKALNLIGKKFKELNLTNIYAPPLPSLALPSLPMTSWLMLPDGITVEVIVVNQVNAGHLFVQQHTHPTFHALRSLDQQMYLCYSQPGIPTLPTPVEITVICAAPGADGAWWRAQVVASYEETNEVEIRYVDYGGYKRVKVDVLRQIRSDFVTLPFQGAEVLLDSVVPLSDDDHFSPEADAAMSEMTGNTALLAQVTSYSATGLPLIQLWSVVGDEVVLINRSLVERGLAQWVDSCYASL | 0.8425 | 1.156
Clasp2 pS436 (protein, UniProt Q99JD4 1-1286, looked up, phosphorylated at S436) CLIP-associating protein 2: MRRLICKRICDYKSFDDEESVDGNRPSSAASAFKVPAPKTPGNPVNSARKPGSAGGPKAGGTSKEGGAGAVDEDDFIKAFTDVPSIQIYSSRELEETLNKIREILSDDKHDWDQRANALKKIRSLLVAGAAQYDCFFQHLRLLDGALKLSAKDLRSQVVREACITVAHLSTVLGNKFDHGAEAIVPTLFNLVPNSAKVMATSGCAAIRFIIRHTHVPRLIPLITSNCTSKSVPVRRRSFEFLDLLLQEWQTHSLERHAAVLVETIKKGIHDADAEARVEARKTYMGLRNHFPGEAETLYNSLEPSYQKSLQTYLKSSGSVASLPQSDRSSSSSQESLNRPFSSKWSTANPSAVAGRVSVGGSKASPLPGSLQRSRSDIDVNAAAGAKAHHAAGQAVRSGRLGAGALNPGSYASLEDTSDKMDGTASEDGRVRAKLSTPLVAVGNAKTDSRGRSRTKMVSQSQPGSRSGSPGRVLTTTALSTVSSGAQRILVNSASAQKRSKIPRSQGCSREASPSRLSVARSSRIPRPSVSQGCSREASRESSRDTSPVRSFQPLGPGYGMSQSSRLSSSVSAMRVLNTGSDVEEAVADALLLGDIRTKKKPARRRYESYGMHSDDDANSDASSACSERSYSSRNGSIPTYMRQTEDVAEVLNRCASSNWSERKEGLLGLQNLLKNQRTLSRVELKRLCEIFTRMFADPHGKVFSMFLETLVDFIQVHKDDLQDWLFVLLTQLLKKMGADLLGSVQAKVQKALDVTRESFPNDLQFNILMRFTVDQTQTPSLKVKVAILKYIETLAKQMDPGDFINSSETRLAVSRVITWTTEPKSSDVRKAAQSVLISLFELNTPEFTMLLGALPKTFQDGATKLLHNHLRNTGNGTQSSMGSPLTRPTPRSPANWSSPLTSPTNTSQNTLSPSAFDYDTENMNSEDIYSSLRGVTEAIQNFSFRSQEDMSEPLKRDPKKEDGDTVCSGPGMSDPRAGGDAPDSSQPALDNKASLLHSVPLHSSPRSRDYNPYNYSDSISPFNKSALKEAMFDDDADQFPDDLSLDHSDLVAELLKELSNHNERIEERKIALYELMKLTQEESFSVWDEHFKTILLLLLETLGDKEPTIRALALKVLKEILRHQPARFKNYAELTVMKTLEAHKDPHKEVVRSAEEAASVLATSISPEQCIKVLCPIIQTADYPINLAAIKMQTKVIERVSKETLNLLLPEIMPGLIQGYDNSESSVRKACVFCLVAVHAVIGDELKPHLSQLTGSKMKLLNLYIKRAQTGSAGADPTTDVSGQS | 0.8616 | 1.792
Crip2 pS114 (protein, UniProt P36201 1-208, looked up, phosphorylated at S114) Cysteine-rich protein 2: MASKCPKCDKTVYFAEKVSSLGKDWHKFCLKCERCNKTLTPGGHAEHDGKPFCHKPCYATLFGPKGVNIGGAGSYIYEKPPTEAPQVTGPIEVPVVRTEERKTSGPPKGPSKASSVTTFTGEPNMCPRCNKRVYFAEKVTSLGKDWHRPCLRCERCSKTLTPGGHAEHDGQPYCHKPCYGILFGPKGVNTGAVGSYIYDKDPEGTVQP | 1.062 | 3.456
Crip2 pS19 (protein, UniProt P36201 1-208, looked up, phosphorylated at S19) Cysteine-rich protein 2: MASKCPKCDKTVYFAEKVSSLGKDWHKFCLKCERCNKTLTPGGHAEHDGKPFCHKPCYATLFGPKGVNIGGAGSYIYEKPPTEAPQVTGPIEVPVVRTEERKTSGPPKGPSKASSVTTFTGEPNMCPRCNKRVYFAEKVTSLGKDWHRPCLRCERCSKTLTPGGHAEHDGQPYCHKPCYGILFGPKGVNTGAVGSYIYDKDPEGTVQP | 1.661 | 2.804
